Test results taken from patent publication US20080267908A1 (YEDA RESEARCH AND DEVELOPMENT, published 2008).

T1: human urinary Proteinase-3 (PR-3), affinity purified (elution fraction 3 of the IL-32 column), active (human, UniProt P24158 28-248)
T1 construct: mature; also called urinary PR-3; urinary PR3
T1 sequence (looked up): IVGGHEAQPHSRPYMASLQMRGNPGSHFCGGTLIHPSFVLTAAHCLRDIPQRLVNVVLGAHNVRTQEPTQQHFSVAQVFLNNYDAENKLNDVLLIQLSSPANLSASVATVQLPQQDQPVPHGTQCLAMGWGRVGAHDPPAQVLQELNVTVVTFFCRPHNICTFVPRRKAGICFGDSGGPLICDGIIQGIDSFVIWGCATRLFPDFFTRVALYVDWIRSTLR

T2: commercially available human neutrophil derived PR-3 (Athens Research and Technology), active (human, UniProt P24158 28-248)
T2 construct: mature; Bought; purified from human neutrophils; also called commercial PR-3; commercially available PR-3
T2 sequence (looked up): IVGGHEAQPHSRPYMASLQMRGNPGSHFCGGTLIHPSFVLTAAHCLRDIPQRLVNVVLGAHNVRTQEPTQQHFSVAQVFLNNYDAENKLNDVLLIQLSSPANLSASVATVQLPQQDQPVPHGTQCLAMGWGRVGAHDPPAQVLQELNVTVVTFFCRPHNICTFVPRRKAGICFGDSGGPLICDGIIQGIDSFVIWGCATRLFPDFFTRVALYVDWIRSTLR

T3: commercially available human PR-3 (Athens Research and Technology) inactivated by PMSF (human, UniProt P24158 28-248, inactivated by PMSF; the modified residue is not stated)
T3 construct: mature; Same product as the commercial PR-3, treated with PMSF before the assay; also called PMSF pretreated commercial PR-3
T3 sequence (looked up): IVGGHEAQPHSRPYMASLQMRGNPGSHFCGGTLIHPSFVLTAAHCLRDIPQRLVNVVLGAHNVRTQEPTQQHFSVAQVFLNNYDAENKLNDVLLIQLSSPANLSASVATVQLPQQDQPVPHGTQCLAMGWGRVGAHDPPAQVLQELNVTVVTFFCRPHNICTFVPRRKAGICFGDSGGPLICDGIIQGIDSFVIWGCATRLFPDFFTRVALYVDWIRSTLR

T4: human urinary PR-3 inactivated by phenyl methyl sulfonyl fluoride (PMSF) (human, UniProt P24158 28-248, inactivated by PMSF (1 mM); the modified residue is not stated)
T4 construct: mature; Same preparation as the urinary PR-3, treated with PMSF before the assay; also called PMSF pretreated urinary PR-3
T4 sequence (looked up): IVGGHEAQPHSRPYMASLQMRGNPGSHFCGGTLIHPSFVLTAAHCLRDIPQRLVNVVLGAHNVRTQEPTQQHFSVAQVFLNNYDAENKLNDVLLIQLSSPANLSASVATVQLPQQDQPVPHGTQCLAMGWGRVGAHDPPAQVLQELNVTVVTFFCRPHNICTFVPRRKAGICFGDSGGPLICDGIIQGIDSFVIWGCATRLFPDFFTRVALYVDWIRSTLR

T5: 125I-IL-32 (radio-iodinated IL-32)
T5 chain: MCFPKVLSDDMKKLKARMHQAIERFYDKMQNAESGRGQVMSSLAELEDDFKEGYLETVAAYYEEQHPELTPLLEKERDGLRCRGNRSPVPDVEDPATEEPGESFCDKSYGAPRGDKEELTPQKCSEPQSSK


Tests used:
[1] = molecular target: T1, human urinary Proteinase-3 (PR-3), …; assay: SPR (BIAcore), IL-32 immobilized, PR-3 at 10-80 nM; urinary PR3, active (FIG. 2A)
Procedure: (§1) FIG. 2 A. IL-32 (20 μg/ml) in acetate buffer pH 4.6) was immobilized to a single channel of a BIAcore chip as recommended by the manufacturer (Amersham Pharmacia, Uppsala Sweden). […] The resulting kD was 7.9×10⁻⁸ M.
(§2) IL-32 (20 μg/ml) in acetate buffer pH 4.6) was immobilized to a single channel of a BIAcore chip as recommended by the manufacturer (Amersham Pharmacia, Uppsala Sweden). […] The same analysis was done with PR-3 that was inactivated by PMSF (1 mM) (FIG. 2B). The resulting kD was 7.9×10⁻⁸ M. The same analysis was done with a commercially available human neutrophil derived PR-3 (Athens Research and Technology, Athens Ga., 0.5 μg in 20 μl gelatin solution) (FIG. 3A). The resulting kD was 1.2×10⁻⁸ M. The binding was repeated with commercial PR-3 that was inactivated by PMSF (FIG. 3B). The resulting kD was 3.5×10⁻⁸ M.

[2] = molecular target: T2, commercially available human neutrophil …; assay: SPR (BIAcore), IL-32 immobilized; commercial neutrophil-derived PR-3, active (FIG. 3A)
Procedure: as §1
(§3) For details see FIG. 2. The binding data gave a kD of 1.2×10⁻⁸ M with active PR-3, which considerably degraded the immobilized IL-32 (FIG. 3 A). The kD of commercially available PR-3 that was inactivated by PMSF (FIG. 3 B) was 3.5×10⁻⁸ M.
as §2

[3] = molecular target: T3, commercially available human PR-3 …; assay: SPR (BIAcore), IL-32 immobilized; commercial PR-3 inactivated by PMSF (FIG. 3B)
Procedure: as §1, §3, §2

[4] = molecular target: T4, human urinary PR-3 inactivated by …; assay: SPR (BIAcore), IL-32 immobilized; urinary PR-3 inactivated by PMSF (1 mM) (FIG. 2B)
Procedure: as §1, §2

[5] = molecular target: T5, 125I-IL-32 (radio-iodinated IL-32)

Binder | cleavage of 125I-IL-32 (SDS-PAGE, autoradiography) [5] | other results
recombinant human IL-32α produced in E. coli (ligand, also called hrIL-32; human recombinant IL-32) MCFPKVLSDDMKKLKARMHQAIERFYDKMQNAESGRGQVMSSLAELEDDFKEGYLETVAAYYEEQHPELTPLLEKERDGLRCRGNRSPVPDVEDPATEEPGESFCDKSYGAPRGDKEELTPQKCSEPQSSK |  | Kd [1]: 26.5 nM; Kd [2]: 12 nM; Kd [3]: 35 nM; Kd [4]: 79 nM
human urinary Proteinase-3 (PR-3), affinity purified (elution fraction 3 of the IL-32 column), active (protein) IVGGHEAQPHSRPYMASLQMRGNPGSHFCGGTLIHPSFVLTAAHCLRDIPQRLVNVVLGAHNVRTQEPTQQHFSVAQVFLNNYDAENKLNDVLLIQLSSPANLSASVATVQLPQQDQPVPHGTQCLAMGWGRVGAHDPPAQVLQELNVTVVTFFCRPHNICTFVPRRKAGICFGDSGGPLICDGIIQGIDSFVIWGCATRLFPDFFTRVALYVDWIRSTLR | the 20 kDa band completely disappeared and the levels of the 16 and 13 kDa IL-32 cleavage products increased after a 5 min. incubation with PR-3 | 
commercially available human neutrophil derived PR-3 (Athens Research and Technology), active (protein) IVGGHEAQPHSRPYMASLQMRGNPGSHFCGGTLIHPSFVLTAAHCLRDIPQRLVNVVLGAHNVRTQEPTQQHFSVAQVFLNNYDAENKLNDVLLIQLSSPANLSASVATVQLPQQDQPVPHGTQCLAMGWGRVGAHDPPAQVLQELNVTVVTFFCRPHNICTFVPRRKAGICFGDSGGPLICDGIIQGIDSFVIWGCATRLFPDFFTRVALYVDWIRSTLR | the commercial PR-3 is more potent than the urinary PR-3, leading to complete disappearance of the 20 kDa IL-32 band within 1 min | 
commercially available human PR-3 (Athens Research and Technology) inactivated by PMSF (protein) IVGGHEAQPHSRPYMASLQMRGNPGSHFCGGTLIHPSFVLTAAHCLRDIPQRLVNVVLGAHNVRTQEPTQQHFSVAQVFLNNYDAENKLNDVLLIQLSSPANLSASVATVQLPQQDQPVPHGTQCLAMGWGRVGAHDPPAQVLQELNVTVVTFFCRPHNICTFVPRRKAGICFGDSGGPLICDGIIQGIDSFVIWGCATRLFPDFFTRVALYVDWIRSTLR | no cleavage products were observed with PMSF pretreated PR-3 incubated with IL-32 | 
human urinary PR-3 inactivated by phenyl methyl sulfonyl fluoride (PMSF) (protein) IVGGHEAQPHSRPYMASLQMRGNPGSHFCGGTLIHPSFVLTAAHCLRDIPQRLVNVVLGAHNVRTQEPTQQHFSVAQVFLNNYDAENKLNDVLLIQLSSPANLSASVATVQLPQQDQPVPHGTQCLAMGWGRVGAHDPPAQVLQELNVTVVTFFCRPHNICTFVPRRKAGICFGDSGGPLICDGIIQGIDSFVIWGCATRLFPDFFTRVALYVDWIRSTLR | no cleavage products were observed with PMSF pretreated PR-3 incubated with IL-32 | 
